Measurements reported in IntAct's records for PubMed 31515488.

B1: Arginine/serine-rich protein 1 (Homo sapiens), Q9BUV0 (parent)
chain: MSNYVNDMWPGSPQEKDSPSTSRSGGSSRLSSRSRSRSFSRSSRSHSRVSSRFSSRSRRSKSRSRSRRRHQRKYRRYSRSYSRSRSRSRSRRYRERRYGFTRRYYRSPSRYRSRSRSRSRSRGRSYCGRAYAIARGQRYYGFGRTVYPEEHSRWRDRSRTRSRSRTPFRLSEKDRMELLEIAKTNAAKALGTTNIDLPASLRTVPSAKETSRGIGVSSNGAKPELSEKVTEDGTRNPNEKPTQQRSIAFSSNNSVAKPIQKSAKAATEEASSRSPKIDQKKSPYGLWIPI
B2: Cyclin-dependent kinase 4 inhibitor D (Homo sapiens), P55273 (parent)
chain: MLLEEVRAGDRLSGAAARGDVQEVRRLLHRELVHPDALNRFGKTALQVMMFGSTAIALELLKQGASPNVQDTSGTSPVHDAARTGFLDTLKVLVEHGADVNVPDGTGALPIHLAVQEGHTAVVSFLAAESDLHRRDARGLTPLELALQRGAQDLVDILQGHMVAPL
partner: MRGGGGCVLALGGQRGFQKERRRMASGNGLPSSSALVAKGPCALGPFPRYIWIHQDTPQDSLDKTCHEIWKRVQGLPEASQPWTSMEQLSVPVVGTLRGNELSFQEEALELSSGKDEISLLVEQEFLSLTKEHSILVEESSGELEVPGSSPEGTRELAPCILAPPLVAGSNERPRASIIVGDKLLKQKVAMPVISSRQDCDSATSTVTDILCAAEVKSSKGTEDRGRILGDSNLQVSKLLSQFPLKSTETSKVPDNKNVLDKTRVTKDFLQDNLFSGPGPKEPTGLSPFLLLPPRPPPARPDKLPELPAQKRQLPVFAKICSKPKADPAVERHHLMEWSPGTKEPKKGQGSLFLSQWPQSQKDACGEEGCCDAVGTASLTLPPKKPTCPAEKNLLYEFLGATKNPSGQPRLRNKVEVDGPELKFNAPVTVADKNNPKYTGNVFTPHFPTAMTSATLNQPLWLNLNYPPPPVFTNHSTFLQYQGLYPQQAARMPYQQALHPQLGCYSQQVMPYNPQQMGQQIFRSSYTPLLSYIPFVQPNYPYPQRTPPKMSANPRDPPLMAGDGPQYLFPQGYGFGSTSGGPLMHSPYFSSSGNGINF
B3: Flavin-containing monooxygenase 3 (Homo sapiens), P31513 (parent)
chain: MGKKVAIIGAGVSGLASIRSCLEEGLEPTCFEKSNDIGGLWKFSDHAEEGRASIYKSVFSNSSKEMMCFPDFPFPDDFPNFMHNSKIQEYIIAFAKEKNLLKYIQFKTFVSSVNKHPDFATTGQWDVTTERDGKKESAVFDAVMVCSGHHVYPNLPKESFPGLNHFKGKCFHSRDYKEPGVFNGKRVLVVGLGNSGCDIATELSRTAEQVMISSRSGSWVMSRVWDNGYPWDMLLVTRFGTFLKNNLPTAISDWLYVKQMNARFKHENYGLMPLNGVLRKEPVFNDELPASILCGIVSVKPNVKEFTETSAIFEDGTIFEGIDCVIFATGYSFAYPFLDESIIKSRNNEIILFKGVFPPLLEKSTIAVIGFVQSLGAAIPTVDLQSRWAAQVIKGTCTLPSMEDMMNDINEKMEKKRKWFGKSETIQTDYIVYMDELSSFIGAKPNIPWLFLTDPKLAMEVYFGPCSPYQFRLVGPGQWPGARNAILTQWDRSLKPMQTRVVGRLQKPCFFFHWLKLFAIPILLIAVFLVLT
partner: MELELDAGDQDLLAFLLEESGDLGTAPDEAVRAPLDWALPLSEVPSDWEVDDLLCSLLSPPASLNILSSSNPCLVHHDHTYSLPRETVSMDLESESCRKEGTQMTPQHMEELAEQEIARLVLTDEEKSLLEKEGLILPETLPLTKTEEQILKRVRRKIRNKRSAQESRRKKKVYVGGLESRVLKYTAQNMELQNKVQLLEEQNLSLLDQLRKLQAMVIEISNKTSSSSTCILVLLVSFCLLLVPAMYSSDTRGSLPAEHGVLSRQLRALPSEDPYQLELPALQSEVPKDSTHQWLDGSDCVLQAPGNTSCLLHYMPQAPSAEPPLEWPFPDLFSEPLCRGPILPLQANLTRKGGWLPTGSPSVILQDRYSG
B4: Placental protein 13-like (Homo sapiens), Q8TCE9 (parent)
chain: MSSLPVPYTLPVSLPVGSCVIITGTPILTFVKDPQLEVNFYTGMDEDSDIAFQFRLHFGHPAIMNSCVFGIWRYEEKCYYLPFEDGKPFELCIYVRHKEYKVMVNGQRIYNFAHRFPPASVKMLQVFRDISLTRVLISD
partner: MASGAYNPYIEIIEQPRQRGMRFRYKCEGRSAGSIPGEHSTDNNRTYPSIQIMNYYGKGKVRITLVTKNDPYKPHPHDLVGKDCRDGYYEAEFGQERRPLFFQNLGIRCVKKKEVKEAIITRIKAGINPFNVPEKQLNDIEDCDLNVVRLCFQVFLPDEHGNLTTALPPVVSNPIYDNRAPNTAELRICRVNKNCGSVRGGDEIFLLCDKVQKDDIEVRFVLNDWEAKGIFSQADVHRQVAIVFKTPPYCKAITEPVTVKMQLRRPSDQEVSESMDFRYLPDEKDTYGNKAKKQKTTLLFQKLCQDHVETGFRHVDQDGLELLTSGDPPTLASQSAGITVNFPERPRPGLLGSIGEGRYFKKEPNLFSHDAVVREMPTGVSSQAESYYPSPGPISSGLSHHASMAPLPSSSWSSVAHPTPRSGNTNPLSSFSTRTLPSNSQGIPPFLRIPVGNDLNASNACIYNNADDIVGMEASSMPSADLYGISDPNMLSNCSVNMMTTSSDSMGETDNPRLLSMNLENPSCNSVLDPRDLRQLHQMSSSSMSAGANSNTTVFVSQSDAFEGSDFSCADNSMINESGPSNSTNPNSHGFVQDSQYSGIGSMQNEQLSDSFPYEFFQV
B5: Polyunsaturated fatty acid 5-lipoxygenase (Homo sapiens), P09917 (parent)
chain: MPSYTVTVATGSQWFAGTDDYIYLSLVGSAGCSEKHLLDKPFYNDFERGAVDSYDVTVDEELGEIQLVRIEKRKYWLNDDWYLKYITLKTPHGDYIEFPCYRWITGDVEVVLRDGRAKLARDDQIHILKQHRRKELETRQKQYRWMEWNPGFPLSIDAKCHKDLPRDIQFDSEKGVDFVLNYSKAMENLFINRFMHMFQSSWNDFADFEKIFVKISNTISERVMNHWQEDLMFGYQFLNGCNPVLIRRCTELPEKLPVTTEMVECSLERQLSLEQEVQQGNIFIVDFELLDGIDANKTDPCTLQFLAAPICLLYKNLANKIVPIAIQLNQIPGDENPIFLPSDAKYDWLLAKIWVRSSDFHVHQTITHLLRTHLVSEVFGIAMYRQLPAVHPIFKLLVAHVRFTIAINTKAREQLICECGLFDKANATGGGGHVQMVQRAMKDLTYASLCFPEAIKARGMESKEDIPYYFYRDDGLLVWEAIRTFTAEVVDIYYEGDQVVEEDPELQDFVNDVYVYGMRGRKSSGFPKSVKSREQLSEYLTVVIFTASAQHAAVNFGQYDWCSWIPNAPPTMRAPPPTAKGVVTIEQIVDTLPDRGRSCWHLGAVWALSQFQENELFLGMYPEEHFIEKPVKEAMARFRKNLEAIVSVIAERNKKKQLPYYYLSPDRIPNSVAI
B6: Four and a half LIM domains protein 2 (Homo sapiens), Q14192 (parent)
chain: MTERFDCHHCNESLFGKKYILREESPYCVVCFETLFANTCEECGKPIGCDCKDLSYKDRHWHEACFHCSQCRNSLVDKPFAAKEDQLLCTDCYSNEYSSKCQECKKTIMPGTRKMEYKGSSWHETCFICHRCQQPIGTKSFIPKDNQNFCVPCYEKQHAMQCVQCKKPITTGGVTYREQPWHKECFVCTACRKQLSGQRFTARDDFAYCLNCFCDLYAKKCAGCTNPISGLGGTKYISFEERQWHNDCFNCKKCSLSLVGRGFLTERDDILCPDCGKDI
partner: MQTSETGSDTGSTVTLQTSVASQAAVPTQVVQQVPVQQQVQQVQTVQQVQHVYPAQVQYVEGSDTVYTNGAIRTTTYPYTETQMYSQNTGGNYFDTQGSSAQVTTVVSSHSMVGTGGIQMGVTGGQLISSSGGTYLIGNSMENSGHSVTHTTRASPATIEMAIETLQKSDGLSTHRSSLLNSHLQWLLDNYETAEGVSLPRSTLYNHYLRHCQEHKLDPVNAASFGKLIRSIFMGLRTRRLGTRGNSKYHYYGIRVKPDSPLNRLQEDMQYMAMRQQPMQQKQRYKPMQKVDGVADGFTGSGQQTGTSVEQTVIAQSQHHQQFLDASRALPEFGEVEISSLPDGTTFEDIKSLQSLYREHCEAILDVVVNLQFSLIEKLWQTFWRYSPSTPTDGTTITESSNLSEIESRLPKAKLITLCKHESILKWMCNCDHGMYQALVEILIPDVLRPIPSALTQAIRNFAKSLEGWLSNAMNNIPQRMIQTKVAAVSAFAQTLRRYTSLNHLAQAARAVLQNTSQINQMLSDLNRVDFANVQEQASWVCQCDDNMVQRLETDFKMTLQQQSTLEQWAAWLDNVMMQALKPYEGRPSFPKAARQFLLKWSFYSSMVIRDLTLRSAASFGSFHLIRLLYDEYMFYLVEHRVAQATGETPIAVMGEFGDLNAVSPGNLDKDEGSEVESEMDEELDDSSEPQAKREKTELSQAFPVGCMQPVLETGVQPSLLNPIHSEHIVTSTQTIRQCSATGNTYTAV

Variants of: B1
Conditions: with clk2_human CLK2, P49760
clk2_human CLK2, P49760, sequence (P49760 whole entry, looked up): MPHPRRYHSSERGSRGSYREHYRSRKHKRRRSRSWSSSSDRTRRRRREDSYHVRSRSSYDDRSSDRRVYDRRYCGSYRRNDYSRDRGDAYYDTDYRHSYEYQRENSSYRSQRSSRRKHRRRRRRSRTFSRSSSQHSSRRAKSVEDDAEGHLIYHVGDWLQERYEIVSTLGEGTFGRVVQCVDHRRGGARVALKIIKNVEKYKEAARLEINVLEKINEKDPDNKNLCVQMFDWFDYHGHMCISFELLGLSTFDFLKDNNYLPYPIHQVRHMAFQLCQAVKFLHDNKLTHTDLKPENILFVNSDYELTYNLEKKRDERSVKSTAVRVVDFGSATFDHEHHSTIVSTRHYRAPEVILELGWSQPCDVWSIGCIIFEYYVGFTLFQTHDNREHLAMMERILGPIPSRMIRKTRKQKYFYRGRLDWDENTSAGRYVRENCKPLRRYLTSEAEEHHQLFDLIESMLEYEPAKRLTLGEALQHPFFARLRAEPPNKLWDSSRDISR

| Variant | effect of a mutation on the interaction |
| --- | --- |
| Y147H | with no effect |
| V216A | with no effect |

Variants of: B1
Conditions: with clk3_human CLK3, P49761
clk3_human CLK3, P49761, sequence (P49761 whole entry, looked up): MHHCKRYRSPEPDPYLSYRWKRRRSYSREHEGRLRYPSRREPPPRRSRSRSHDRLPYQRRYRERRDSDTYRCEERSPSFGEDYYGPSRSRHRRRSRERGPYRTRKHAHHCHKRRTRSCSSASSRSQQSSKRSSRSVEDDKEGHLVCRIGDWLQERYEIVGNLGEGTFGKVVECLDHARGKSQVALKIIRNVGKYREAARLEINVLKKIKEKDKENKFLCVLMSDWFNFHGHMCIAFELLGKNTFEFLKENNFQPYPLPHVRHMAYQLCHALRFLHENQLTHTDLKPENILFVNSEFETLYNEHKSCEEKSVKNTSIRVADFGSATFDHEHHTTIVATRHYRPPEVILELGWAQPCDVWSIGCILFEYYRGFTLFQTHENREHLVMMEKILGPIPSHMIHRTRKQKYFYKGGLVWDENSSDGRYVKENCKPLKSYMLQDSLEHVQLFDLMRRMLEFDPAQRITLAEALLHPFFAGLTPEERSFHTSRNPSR

| Variant | effect of a mutation on the interaction |
| --- | --- |
| Y147H | with no effect |
| V216A | with no effect |

Variants of: B2
Conditions: with ca094_human C1orf94, Q6P1W5

| Variant | effect of a mutation on the interaction |
| --- | --- |
| P142S | with no effect |

Variants of: B3
Conditions: with creb3_human CREB3, O43889

| Variant | effect of a mutation on the interaction |
| --- | --- |
| E158K | with no effect |
| G180V | with no effect |

Variants of: B4
Conditions: with rel_human REL

| Variant | effect of a mutation on the interaction |
| --- | --- |
| M123T | with no effect |

Variants of: B5
Conditions: with cep63_human CEP63, Q96MT8
cep63_human CEP63, Q96MT8, sequence (Q96MT8 whole entry): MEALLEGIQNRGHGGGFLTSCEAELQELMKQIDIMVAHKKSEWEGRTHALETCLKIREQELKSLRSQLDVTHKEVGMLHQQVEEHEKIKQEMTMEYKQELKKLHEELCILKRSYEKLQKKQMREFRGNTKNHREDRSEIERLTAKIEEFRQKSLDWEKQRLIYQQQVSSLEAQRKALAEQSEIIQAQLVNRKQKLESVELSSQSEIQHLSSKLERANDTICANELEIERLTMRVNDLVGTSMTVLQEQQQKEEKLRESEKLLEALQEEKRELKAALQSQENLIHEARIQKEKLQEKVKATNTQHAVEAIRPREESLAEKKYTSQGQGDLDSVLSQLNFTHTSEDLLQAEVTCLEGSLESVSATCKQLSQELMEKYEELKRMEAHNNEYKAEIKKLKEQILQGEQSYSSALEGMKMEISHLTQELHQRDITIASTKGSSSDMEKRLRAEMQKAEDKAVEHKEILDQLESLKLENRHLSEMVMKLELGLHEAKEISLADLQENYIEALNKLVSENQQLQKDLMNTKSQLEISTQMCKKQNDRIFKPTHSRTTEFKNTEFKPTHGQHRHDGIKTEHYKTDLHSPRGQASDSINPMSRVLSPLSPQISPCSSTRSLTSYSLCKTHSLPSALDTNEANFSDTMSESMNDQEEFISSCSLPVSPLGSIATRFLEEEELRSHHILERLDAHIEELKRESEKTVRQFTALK

| Variant | effect of a mutation on the interaction |
| --- | --- |
| E254K | with no effect |

Variants of: B5
Conditions: with nutm1_human NUTM1, Q86Y26
nutm1_human NUTM1, Q86Y26, sequence (Q86Y26 whole entry): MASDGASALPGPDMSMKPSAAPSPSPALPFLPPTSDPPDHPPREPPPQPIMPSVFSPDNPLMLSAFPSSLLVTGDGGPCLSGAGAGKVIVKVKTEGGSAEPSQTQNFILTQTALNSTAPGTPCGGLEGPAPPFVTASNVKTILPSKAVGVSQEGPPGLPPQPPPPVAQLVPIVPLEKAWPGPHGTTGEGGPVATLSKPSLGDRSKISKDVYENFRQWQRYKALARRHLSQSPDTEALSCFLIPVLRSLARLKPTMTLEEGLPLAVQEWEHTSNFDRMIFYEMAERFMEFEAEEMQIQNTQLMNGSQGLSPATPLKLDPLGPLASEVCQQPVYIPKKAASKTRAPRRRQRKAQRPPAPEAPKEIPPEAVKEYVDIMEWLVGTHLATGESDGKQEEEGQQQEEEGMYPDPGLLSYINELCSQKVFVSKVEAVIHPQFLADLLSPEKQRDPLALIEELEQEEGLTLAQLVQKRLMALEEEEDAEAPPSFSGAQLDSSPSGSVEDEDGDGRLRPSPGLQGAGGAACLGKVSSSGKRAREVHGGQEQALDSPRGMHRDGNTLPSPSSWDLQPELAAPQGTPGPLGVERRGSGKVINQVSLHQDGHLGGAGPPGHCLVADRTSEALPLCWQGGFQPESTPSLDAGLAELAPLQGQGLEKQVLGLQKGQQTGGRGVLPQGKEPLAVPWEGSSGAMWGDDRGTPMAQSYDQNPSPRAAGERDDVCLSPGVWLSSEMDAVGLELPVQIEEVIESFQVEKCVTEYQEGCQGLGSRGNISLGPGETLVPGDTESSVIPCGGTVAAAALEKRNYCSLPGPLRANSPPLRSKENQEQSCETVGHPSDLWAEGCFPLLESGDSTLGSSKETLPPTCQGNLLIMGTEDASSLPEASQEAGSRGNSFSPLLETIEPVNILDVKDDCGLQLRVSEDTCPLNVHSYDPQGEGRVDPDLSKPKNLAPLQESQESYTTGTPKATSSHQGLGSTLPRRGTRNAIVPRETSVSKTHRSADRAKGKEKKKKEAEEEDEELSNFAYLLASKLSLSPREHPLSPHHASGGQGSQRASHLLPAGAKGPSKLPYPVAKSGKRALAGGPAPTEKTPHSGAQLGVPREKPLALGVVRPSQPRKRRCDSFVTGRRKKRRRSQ

| Variant | effect of a mutation on the interaction |
| --- | --- |
| E254K | with no effect |

Variants of: B6
Conditions: with rfx3_human RFX3, P48380

| Variant | effect of a mutation on the interaction |
| --- | --- |
| N95K | with no effect |
